Assay results reported in the nanobody polyreactivity screen of Harvey et al. (2022).

Assay: yeast display, Sf9 membrane polyspecificity reagent, FACS + sequencing; frameworks hold sequencing errors
Procedure, shortened: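 Sorting gates, low and high (top ~1%), were placed on anti-HA fluorescence to track expression and on streptavidin fluorescence to track reagent binding. A clone's polyreactivity label is taken from the gate it came out of. The reagent was 10% biotinylated, detergent-solubilized Sf9 membrane, applied for 1 hour at 4 °C to galactose-induced yeast display cells.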

Sequence | polyreactivity (PSR sort gate)
QVQLVESGGGLVQAGGSLRLSCAASGRILGKYAMGWYRQAAGKERELVAAIRLRGGSTYYADSVKGRFTISRDNAKNTVYLQMNSLKPEDTAVYYCAARYWDRSQAYNYWGQGTQVTVSS | high polyreactivity
QVHLVESGGGLVQAGGSLRLSCAASGRTFPSYAMGWYRQAPGKERELVAAITRGGSTYYADSVKGRFTISRDNAKNTVYLQMNSLKPEDTAVYYCATRYGRARAYYYWGQGTQVTVSS | high polyreactivity
QVQLVESGGGLVQAGRSLRLSCAASGSTFSSYGMGWYRQAPGKDRELDASITIRGGSTYYADSVKGRFTISRDNAKTTVCIQMNSLKPEDTAVYYCAADVTNRGTWVIYGYYYWGQGTQVTVSS | low polyreactivity
QVQLVESGGGLVQAGGSLRLSCAASGRTFPPTAMGGYRLAPGKEWELVAAISPSGASTYYADSVKGRFTISRDNAKNTVYLQMNSLKPEDTAVYYCAARRFIASPRYKYDYWGQGTQVTVSS | high polyreactivity
QVQLVESGGGLVQAGGSLRLTCAASGRISGYNMGWYRQAPGKERELVAGIDYSGGSTYYADSVKGRFTISRDNAKYNVSLQMTSLKPEDTAVYDCNAVYARKYYYSHGYDYWGQGTQVTVSS | high polyreactivity
QVQLVESGGGLVQAGGSLRLSCAASGRTINGNTMGWYRQAPGKERELVAVIDWSGGSTYYADSVKGRFTISRDTAKNTVYLQMNSLKPEDTAVYFCATVSGYAYYYWGQGTQVTVSS | low polyreactivity
QVQLVESGGGLVQAGCNLRISCAASGSTFTLYAMGWYRQAPGKERELVAGITYSGGSTFYADSVKGRFTISRDNAKNTVYLQMKSVKPEDTAVYFCGDVYVPYYWLGRSRGLYYWGQGTQVTVSS | high polyreactivity
QVQLVESGGGLVQAGGSLRLSCAASGFTFGWNAMGWYRQAPGKERELVAAISWSGGSTYYADSVKGRFTISRDNAKNTVYLQMNSLKPEDTAVYYCAAYPAYGGDYWGQGTQVTVSS | high polyreactivity
QDQLVESGGGLVQTGGSLRLSWAASGSTFYNTVMGWYRQAPGKERELVAAINSGGRTYYADSVKGRFTISRDNAKNTVYLQMNSLNPEDTAVYYCAVGYGRAARMDYWGQGTQVTVSS | high polyreactivity
QVQLVESRGGLVQAGGSLRLSCAASGFIFYWNAMGWYRQAPGKEREFVATITWSGGSTYYADSVKGRFTISRDNAKNTVYLQMNSLKPEDTAVYYCNADVTWEDDYCGQGTQVTVSS | low polyreactivity
QVQLVESGGGLVQAGGSLRLSCAASGRTFWKYAMGWYRQAPGKERELVAAITASGARTYYADSVKGRFTISRDNAKNTVYLQLNSLKPEDTAVYYCNAGSVSDRQMDYWGQGTQVTVSS | low polyreactivity
QVQLVESGGGLVQAGGSLSLICAASGGIIRYKAMGWYRQAPGKERELVAAISSGGNTNYADSVKGRFTISRDNAKNTVNLQMNSLKPEDTAVYYSAKAAPWRVYYHKAYGYDYWGQGPQVTVSS | high polyreactivity
QVQLVESGGGLVQAGGSLRLSCAASGSIFFYYAMGWYRQAPGKERELVASISTDGSTYADSVKGRFTISRDNAKNTVSLQMNSLKPEDTAFYYCATRGAEAERFASYDFDYWGQGTQVTVSS | low polyreactivity
QVQLVESGGGLVQAGGSLRLSCAASGSIFTRYAMGWYRQSPGKERELVAALSYRGGRTYYADSVKGRFTISRDNAKNTVYLQMNSLKPVDTAVYYCAAGYRFSYSPNEFYYWGQGTQVTVSS | high polyreactivity
QVQHVESGGGLDQAGGSLRLSCAASGRTFAPYAMGWYRQAPGKEREFVAGITWSSSSTYADSVKGRFTISRDNAKNTVYVQMNSLKPDDPAVYYCAARHAKGGNRHYYWGQGTQVTVSS | high polyreactivity
QVQLVESGGGLVQAGGSLRLSCAASGGIVRLYGMGWDRQAPGKEMEFVAAISSGGGRTYYADSVKGRFTLSRDNAKNTVYLQMNSLKPEDTAVYYCNAELNWYYYIHLDYWGQGTQVTVSS | low polyreactivity
QVQLVESGRGLVQAGGSLRLSCAASGSIFSSYAMGWYRQAPGKERELVAAITWSGGRTYYADSVKGRFTISRDNAKNTVYLQMNSLKPEDTAVYYCNAVYLAYGGDYWGQGTQVTVSS | high polyreactivity
QVQLVESGGGLVQAGGSLRLSCAASGRTLYKYAMGLYRQAPGKERELFATISSGGRTNYADSVKGRFTISRDNSKNTVYLQMNSLKPEDTAVYYCAAQNRPRYYSGDYWGQGSQVTVSS | low polyreactivity
QVQLVESGGGLVQAGGSLRLSCAASGRIFDYYAMGWYRQAPGKERELVARITSGGTTNYADSVKGRFTISRDNAKNPVYLQMNSLKPEDTAVYYCAADVYGTVRRVGWYYVGEGYDYWGQGTQVTVSS | low polyreactivity
QVQLVESGGGLVQAGGSLRLSCAASGFILGQYAMGWYRQAPGKERELVAAISGSSSTTYADCVKGRFTISRDNAKNTVYLQMNSLKPEDTAVYYCAAYYWYVTYFRREIAYEYWGQGTQVTVSS | low polyreactivity
QVQLVESGGGLVQAGGSLRLSCAASGSIFSVYAMGWYSQAPGKEREVVAASTSSGGSTYYADSVKGRFTISRDNAKNTVHFQMNSLKPEDTAVYYCAADKYVRRLSWYRYGYWGQGTQVTVSS | high polyreactivity
QVQLVESGGGLVQAGCSLRLSCAASGFTFTTYAMGWYRQSPGKERELVAAISRSTGSTYYADSVKGRFTISRDNAKNTVYLKMNSMKPEDTAVYYCNTVFPNGYLSKYYYWGQGTKVTVSS | high polyreactivity

Sequence | polyreactivity (PSR sort gate)
QVQLVESGGGLVQAGGSLRLSCAASGRTFYVNTMGWYRQAPGKEREFVAAITWRDGSTYYADSVKGRFTISRDNAKNTVYLQMNSLKPEDTAVYYCAARNSHDGYYDEYYYWGQGTQVTVSS | low polyreactivity
QVQLVESGGGLVQAGGSLRLSCAASGSTFRQNAMGWYRQAPRKERELVATIRTSGGTTYYADSVKGRFTISRDTAKNTVYLQMNSLKPVDTAVYYCAAVSYLFLYQGYPIAYPMYYWGQGTQVTVSS | low polyreactivity
QVQLVEAGGGLGQAGGSLRLSCAASGFTFYRYARGWYRQAPGKERELVAAISSSGGRTYYADSVKGRFTISRDTAKNTVYLQMNSLKPEDTAVYYCNVVRLQSYYGPFDYWGQGTQVTVSS | high polyreactivity
QVQLVESGGGLVQAGGSLRLSCAASGRIFSNNAMGWYRQAPGKERELVAAITNSGGSTYYADSVKGRFTISRDNAKNTVYLQMNSLKPEDTAVYYCAADHLSVPYDVYWTYSYWGQGTQVTVSS | low polyreactivity
QVQLVESGGGLFQAGGSLRLSCAASGSTFAFYDMGWYRQATGIERELVAIIDWSGGRTYYADSVKGRFTISRDNAKHTVYLQMNSLKPQDTAVYYCAVDYEYVGGDYWGQGTQVTVSS | low polyreactivity
QVQLVESGGGLVQAGGSLRLSCAASGNTFPLNAMGWYRQAPGKERDLVAGISRTGGSTYYADSVKGRFTISRDNAKNTVYLQMNSLKPEDTAVYYCAAQSRYWVVRMDYWGQGTQVTVSS | high polyreactivity
QVQLVESGGGLVQAGGSLRLSCAASGRIFAPYAMGWYRQAPGKEREVVAGITRGGITNYADSVKGRFTISRDNAKNTVYLQMNSLKPEDTAVYYCATVVNRRGFYQYYYWGQGTQVTVSS | high polyreactivity
QVQLVESGGGLVQAGGSLRLSCAASGSTSVQYAMGWYRQAPGKERELVAAIDRSGGSTSYADSVKGRFTISRYNAKNTVYLQMNSLKPEDTAVYYCNADPVRSTYSYDYWGQGTQVTVSS | low polyreactivity
QVQLVESGGGLVQAGGSLRLSCAASGFIFSYNAMGWYRQAPGKERELVAAISSIGSGTYYADSVKGRFTISRDNAKNTVYLQMNSLKPEDTAVYYCAKYLRPRIGSRYYYWGQGTQVTVSS | high polyreactivity
QVQLVDSGGGLVQAGGSLRLSCAASGRTFLFNSMGWYRQATGKQRELVAGITWSSGSTYYADSVKGRITISRDNAKNTVYLQMNSLKPEDTAVYYCAAYHFHDNDYWGQGTQVTVSS | low polyreactivity
QVQLVESGGGLVQAGGSLRLSCAASGRTFRNAMGWYRQAPGKEREFVATITWSGGSTYYADSVKGRFTISRDNAKNTVYLQMNSLKPEDTAVYYCAAEGRLWDWQRYDYWGQGTQVTVSS | low polyreactivity
QVQLVESGGGLVQAGGSLRLSCAASGFIFTKYSMGWYRQAPGKERELVAAIRGSGGSTYYADSVKGRFTISRDIAKNSVYLQMNSLKPEDTAVYYCAAERSLGYDYWGQGTQVTVSS | high polyreactivity
QVQLVESGGGLVQAGGSLRLSCAASGSTFLYYTMGWYRQAPGKERELVAAITGSGTSTYYADSVKGRFTISRDNAKNTVYLQMNSLKPEDTAVYYCAARGHGRLYYWGHGTQVTVSS | high polyreactivity
QVQLVESGGGLFQAGGSLRLSCAASGGIFPFYAMGWYRQAPGKERELVAAISSGGSTNYADSVKGRFTISRDNAKNTVYLQMNSLKPEDTAVYYWNTVFQLGEGGSYGYDYWGQGTQVTVSS | low polyreactivity
QVQIVESGGGLVQAGGSLRLSCAASGRTYKYYAMGWYRQAPGKERELDAGITSGSSTSYADSVKGRFTISRDNAKNTVYLQMNSLKPEDTAVYYCAAGIYPYRYDYWGQGTQVTVSS | high polyreactivity
QVQLVESGGGLVQAGGSLRLSCAASGRTFSIYAMGWYRQAPVKERELVAAISNGGRTKYADSVKGRFTISRDNAKNTVSLQMNSLKPEDTAVYYCAKRTYSRKFRGAYNYWGQGTQVTVSS | high polyreactivity
QVKLVESGGGLVQAGGSLRLSCAASGITFVLYAMRWYRQAPGKERELVASITWDATDTYYADSVKGRFTISRDNAKNTVYLQMNSLKPEDTAVYYCNAAYFNYWWLEYDYWGQGTQVTVSS | high polyreactivity
QVQLVESGGGLVQAGGSLRLSCAASGFIFYQYAMGWYRQAPGKERELVATISFRGGRTYYADSVKGRFTISRDNAKNTVYLQMNSLKPEDTAVYYCNAKRVSSRFYKWDYYWGQGTQVTVSS | high polyreactivity
QVQLVESGGGLVQAGGSLRLSCAASGFIFVPNAMGWYRQAPGKERELVAAIRWSDGTTYYADSVKGRFTISRDNAKNNVYLQMNSLKPEDTAVYYCATDHDPRYDYWGQGTQVTVSS | high polyreactivity
QVQLVESGGGLVQAGGSLRLSCAASGRTFDWYAMGLYRQAPGKERELVAAISWSGGSTYYADSVKGRFTISRDNAKNTVYLQMNSLKPEDTAVYYCATDSYTEQSWVAEGYSGQGTQVTVSS | low polyreactivity
QVQLVESGGGLVQAAGSLRLSCAASGRTFGQYVMGGSRQAPGKERELVAAISGIGGSTYYADSVKGRFTISRDNAKNTVYLQMNSLIPDDTAVYYCAVELYWYPGYDYWGQGTQVTVSS | low polyreactivity
